Experimental data from patent US6881547B1, “Methods and reagents for treating autoimmune disorders” (priority 2001, dated 2005).
One block for each molecule: values may come before it.

Legend:
[1] = system: T1, FLAG-tagged recombinant GPBP (rGPBP)
T1 sequence: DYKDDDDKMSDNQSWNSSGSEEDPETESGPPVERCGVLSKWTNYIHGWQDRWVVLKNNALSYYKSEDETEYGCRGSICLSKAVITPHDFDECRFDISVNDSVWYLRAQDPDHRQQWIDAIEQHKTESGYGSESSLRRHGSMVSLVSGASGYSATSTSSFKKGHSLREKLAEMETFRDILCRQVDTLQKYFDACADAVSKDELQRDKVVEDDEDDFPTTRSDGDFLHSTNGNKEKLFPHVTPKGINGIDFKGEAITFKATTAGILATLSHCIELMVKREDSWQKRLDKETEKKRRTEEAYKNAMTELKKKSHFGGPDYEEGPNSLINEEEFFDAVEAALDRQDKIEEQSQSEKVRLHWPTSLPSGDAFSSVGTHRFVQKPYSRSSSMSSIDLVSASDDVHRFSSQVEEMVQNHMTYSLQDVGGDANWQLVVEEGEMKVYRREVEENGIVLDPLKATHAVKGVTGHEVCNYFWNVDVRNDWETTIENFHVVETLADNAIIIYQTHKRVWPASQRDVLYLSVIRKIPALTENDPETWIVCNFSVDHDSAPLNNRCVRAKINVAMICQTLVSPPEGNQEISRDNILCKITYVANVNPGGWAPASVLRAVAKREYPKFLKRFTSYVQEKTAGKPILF

[2] = target: rMBP, recombinant 21 kDa human myelin basic protein (UniProt P02686)
[3] = system: 27-kDa conformer of the native human α3(IV)NC1 domain
[4] = system: prokaryotic human recombinant α3(IV)NC1
[5] = system: rMBPΔII, recombinant 18.5 kDa human myelin basic protein
[6] = system: 22-25-kDa conformers of the native human α3(IV)NC1 domain
[7] = target: T2, FLAG-tagged recombinant GPBP (rGPBP) (human, UniProt Q9Y5P4 1-624, phosphoserine, phosphothreonine and phosphotyrosine present, sites not given); assay: far-Western on in-blot renatured human monomers, 30 ng/µl recombinant GPBP, Mab14 detection
T2 construct: Made in Pichia pastoris or 293 cells; also called FLAG-n4′
T2 sequence: T1 sequence
Protocol: Physical, chemical and immunochemical methods. Lnunoblot studies were performed as described in Example 4. For far-Western, after protein transfer the membrane was blocked with non-fat milk, incubated with 30 ng/μl of fα3 or recombinant GPBP and the bound recombinant material detected with α-FLAG or Mab14, respectively.

[8] = target: T3, native bovine α3(IV)NC1 domain (bovine GP antigen), Q28084
T3 chain: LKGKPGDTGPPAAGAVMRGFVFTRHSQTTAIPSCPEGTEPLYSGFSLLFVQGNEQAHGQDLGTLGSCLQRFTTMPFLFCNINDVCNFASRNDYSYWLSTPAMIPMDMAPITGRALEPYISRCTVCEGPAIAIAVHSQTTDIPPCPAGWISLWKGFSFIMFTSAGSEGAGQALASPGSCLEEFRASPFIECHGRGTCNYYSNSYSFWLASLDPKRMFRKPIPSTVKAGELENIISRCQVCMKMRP

[9] = target: T4, rMBP, recombinant 21 kDa human myelin basic protein, P02686
T4 chain: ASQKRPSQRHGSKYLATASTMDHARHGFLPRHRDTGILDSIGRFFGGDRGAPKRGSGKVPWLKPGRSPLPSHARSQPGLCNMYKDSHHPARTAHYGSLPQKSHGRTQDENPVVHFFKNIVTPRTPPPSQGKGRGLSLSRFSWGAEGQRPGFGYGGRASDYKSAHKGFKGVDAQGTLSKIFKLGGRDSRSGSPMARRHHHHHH

[10] = target: T5, rMBPΔII, recombinant 18.5 kDa human myelin basic protein
T5 chain: T4 chain

GPpep1Ala^9 = target: T6, GPpep1Ala^9
T6 chain: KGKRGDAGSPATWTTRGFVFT

GPpep1 = target: T7, GPpep1
T7 chain: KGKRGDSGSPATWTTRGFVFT

[11] = target: T8, alkaline phosphatase-treated fα3
T8 chain: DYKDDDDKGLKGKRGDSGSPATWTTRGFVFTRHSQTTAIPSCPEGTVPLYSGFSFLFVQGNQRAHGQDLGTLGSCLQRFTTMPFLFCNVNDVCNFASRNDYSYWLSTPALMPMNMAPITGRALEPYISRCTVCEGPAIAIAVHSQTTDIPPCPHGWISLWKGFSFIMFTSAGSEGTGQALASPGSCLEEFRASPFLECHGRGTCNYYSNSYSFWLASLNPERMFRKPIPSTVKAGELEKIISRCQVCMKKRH

[12] = target: T9, prokaryotic human recombinant α3(IV)NC1
T9 chain: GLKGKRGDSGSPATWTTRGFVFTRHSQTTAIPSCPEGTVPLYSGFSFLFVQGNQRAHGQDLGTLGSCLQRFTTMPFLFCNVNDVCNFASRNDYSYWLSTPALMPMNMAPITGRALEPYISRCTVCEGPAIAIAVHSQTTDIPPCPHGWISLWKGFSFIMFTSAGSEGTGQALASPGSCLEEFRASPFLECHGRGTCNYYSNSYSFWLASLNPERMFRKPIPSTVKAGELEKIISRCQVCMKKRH

[13] = target: T10, Human recombinant GP antigen (rGP) produced in 293 cells
T10 chain: T8 chain

[14] = target: T11, native human α3(IV)NC1 domain (GP antigen) from renal cortex, monomer fraction of the hexamer
T11 chain: T9 chain

[15] = target: T12, β-galactosidase-derived fusion protein of clone HeLa1 containing the N-terminal 150 residues of GPBP (human, UniProt Q5R6M6 1-150 (Pongo abelii entry)); assay: filter screen of λ-gt11 expression libraries with GPpep1, detected with M3/1A
T12 construct: also called HeLa1 fusion protein; not shown: β-galactosidase part of the λ-gt11 fusion
T12 sequence: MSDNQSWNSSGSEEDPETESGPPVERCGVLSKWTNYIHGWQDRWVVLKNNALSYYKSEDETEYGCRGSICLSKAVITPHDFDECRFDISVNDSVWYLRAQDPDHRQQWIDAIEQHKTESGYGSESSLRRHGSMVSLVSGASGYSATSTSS
Protocol: Isolation and characterization of cDNA clones encoding human GPBP-Several human λ-gt11 cDNA expression libraries (eye, fetal and adult lung, kidney and HeLa S3, from CLONTECH) were probed for cDNAs encoding proteins interacting with GPpep1. Nitrocellulose filters (Millipore) prepared following standard immunoscreening procedures were blocked and incubated with 1–10 nmoles per ml of GPpep1 at 37° C. Specifically bound GPpep1 was detected using M3/1A monoclonal antibodies (7). A single clone was identified in the HeLa-derived library (HeLa1). Specificity of fusion protein binding was confirmed by similar binding to recombinant eukaryotic human GP antigen. The EcoRI cDNA insert of HeLa1 (0.5-kb) was used to further screen the same library and to isolate overlapping cDNAs. The largest cDNA (2.4-kb) containing the entire cDNA of HeLa1 (n4') was fully sequenced.

Sequence of rGPΔIII (chain, as listed by the source mutant): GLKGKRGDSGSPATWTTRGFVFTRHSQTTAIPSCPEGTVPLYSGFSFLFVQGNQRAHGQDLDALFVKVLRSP
Sequence of rGPΔIII/IV/V (chain, as listed by the source mutant): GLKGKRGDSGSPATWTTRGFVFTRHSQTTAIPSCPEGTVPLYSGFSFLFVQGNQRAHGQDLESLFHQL
Sequence of rGPΔV (chain, as listed by the source mutant): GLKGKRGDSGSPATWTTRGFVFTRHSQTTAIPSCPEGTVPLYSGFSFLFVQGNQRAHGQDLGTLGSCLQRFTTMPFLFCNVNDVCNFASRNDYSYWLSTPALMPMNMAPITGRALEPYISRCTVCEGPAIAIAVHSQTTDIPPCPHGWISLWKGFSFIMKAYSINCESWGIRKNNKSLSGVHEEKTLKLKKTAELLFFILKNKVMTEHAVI

Molecule: catalytic subunit of the cAMP-dependent protein kinase
in vitro phosphorylation [1]: Bovine cPKA phosphorylates GPBP in vitro (not shown)
in vitro phosphorylation by PKA [2]: MBPΔII was a better substrate than MBP, and Ser^8 was the major phosphorylation site
^32P incorporation, phosphorylation by PKA [3]: At 150 mM ATP, the major ^32P incorporation occurred in the 27-kDa conformer
^32P incorporation, phosphorylation by PKA [4]: all four recombinant antigens were phosphorylated but to very different extents
in vitro phosphorylation by PKA [5]: MBPΔII was a better substrate than MBP, and Ser^8 was the major phosphorylation site
^32P incorporation, phosphorylation by PKA (rGPΔV): The alternative forms incorporated ^32P more efficiently than the primary GP antigen
^32P incorporation, phosphorylation by PKA (rGPΔIII/IV/V): The alternative forms incorporated ^32P more efficiently than the primary GP antigen
^32P incorporation, phosphorylation by PKA (rGPΔIII): The alternative forms incorporated ^32P more efficiently than the primary GP antigen
^32P incorporation, phosphorylation by PKA [6]: when the ATP concentration was lowered to extracellular-like concentrations (0.15 mM), the 22-kDa conformer was preferentially labeled

binding result [7]: binds
B1: 22-25-kDa conformers of the native human α3(IV)NC1 domain (other)
chain: T9 chain
modifications: phosphoserine, highest Ser(P) content among the conformers; sites not given
notes: also called 22-25-kDa polypeptides; 22-kDa conformer

B2: FLAG-tagged recombinant GPBP (rGPBP) (protein)
chain: T1 sequence
^32P incorporation, in vitro phosphorylation [8]: no appreciable ^32P-incorporation was observed in the bovine-derived substrate
conformers and oligomers after DTT consumption, Western blot [8]: during DTT consumption GPBP catalyzed specific conformational isomerization reactions over the 27-kDa conformer
^32P incorporation, in situ phosphorylation on blot [9]: GPBP preferentially phosphorylated MBP
^32P incorporation, in situ phosphorylation on blot [10]: little phosphorylation of MBPΔII was observed
^32P incorporation, in vitro phosphorylation (GPpep1Ala^9): The lower ^32P incorporation displayed by GPpep1Ala9 when compared with GPpep1
^32P incorporation, in vitro phosphorylation (GPpep1): Affinity-purified rGPBP phosphorylates all human-derived material to a different extent
monomeric Mab3-reactive material after oligomerization assay [11]: the addition of GPBP to the phosphatase-treated samples resulted in a further reduction in the levels of monomeric material reactive with Mab3
disruption of disulfide-based aggregates, Western blot [12]: GPBP and, to a lesser extent GPBPΔ26 disrupted disulfide-based high molecular weight aggregates characteristic of recombinant material representing human α3(IV)NC1 produced in bacteria
^32P incorporation, in vitro phosphorylation [13]: Affinity-purified rGPBP phosphorylates all human-derived material to a different extent
^32P incorporation, in vitro phosphorylation [14]: Affinity-purified rGPBP phosphorylates all human-derived material to a different extent

binding result [15]: binds
Molecule: KGKRGDSGSPATWTTRGFVFT [GPpep1]
